According to article PMC12208130:

Target: T1, PTK7 (receptor on HCT116 cells) (human (HCT116 colon cancer cells)) (UniProt Q13308)
T1 sequence: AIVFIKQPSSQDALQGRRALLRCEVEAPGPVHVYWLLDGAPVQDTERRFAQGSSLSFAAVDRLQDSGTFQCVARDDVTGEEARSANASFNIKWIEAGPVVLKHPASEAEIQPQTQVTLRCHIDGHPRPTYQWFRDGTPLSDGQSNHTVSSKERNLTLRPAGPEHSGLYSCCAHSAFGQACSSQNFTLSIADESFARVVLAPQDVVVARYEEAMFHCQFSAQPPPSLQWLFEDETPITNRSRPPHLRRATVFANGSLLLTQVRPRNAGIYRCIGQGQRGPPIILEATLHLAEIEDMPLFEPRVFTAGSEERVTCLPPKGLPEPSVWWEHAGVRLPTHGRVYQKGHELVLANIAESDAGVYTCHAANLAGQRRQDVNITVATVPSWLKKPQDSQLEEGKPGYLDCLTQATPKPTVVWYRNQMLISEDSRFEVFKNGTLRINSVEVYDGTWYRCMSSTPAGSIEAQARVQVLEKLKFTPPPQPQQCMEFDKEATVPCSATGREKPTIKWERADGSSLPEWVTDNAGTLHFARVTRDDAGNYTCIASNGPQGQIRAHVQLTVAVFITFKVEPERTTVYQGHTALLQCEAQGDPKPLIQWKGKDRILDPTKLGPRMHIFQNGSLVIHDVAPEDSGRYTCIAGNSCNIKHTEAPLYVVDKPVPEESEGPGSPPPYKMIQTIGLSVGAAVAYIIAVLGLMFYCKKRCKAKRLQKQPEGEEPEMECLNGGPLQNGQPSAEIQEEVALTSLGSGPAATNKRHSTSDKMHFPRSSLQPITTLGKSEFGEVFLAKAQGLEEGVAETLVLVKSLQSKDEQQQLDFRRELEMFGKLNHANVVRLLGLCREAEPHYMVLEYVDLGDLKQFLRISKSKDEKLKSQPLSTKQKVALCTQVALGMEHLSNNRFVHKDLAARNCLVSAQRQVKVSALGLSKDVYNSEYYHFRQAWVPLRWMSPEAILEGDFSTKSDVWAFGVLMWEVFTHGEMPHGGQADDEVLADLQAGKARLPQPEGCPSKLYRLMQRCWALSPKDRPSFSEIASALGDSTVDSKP
Assay: flow cytometry
Settings: 250 nM aptamer (varied for Kd), 30 min at 4 C, DPBS with ~5 mM MgCl2, 0.1 mg/mL yeast tRNA, 1 mg/mL BSA (a 2.25 g additive in the wash buffer is …)

Row | Sequence | Kd (A23 = cordycepin (3'-deoxyadenosine), 2'-5' linkage) [nM] | Kd [nM]
1 | ATCTAACTGCTGCGCCGCCGGGAAAATACTGTACGGTTAGA [Sgc8-23A] | 6.3 | 
2 | ATCTAACTGCTGCGCCGCCGGGAAAATACTGTACGGTTAGA [Sgc8c (Sgc8-Cy5)] |  | 5.92
